The results in this text go back to US20240010747A1, “ANTI-MRP4 (ENCODED BY ABCC4 GENE) ANTIBODIES AND USES THEREOF” (Kenjockety Biotechnology, Inc., priority 2020, published 2024).

Assay [1] concerns the target T1, human ABCC4 (human, UniProt O15439 1-1325).
T1 construct: Expressed on murine C6 cells stably transfected with human ABCC4 cDNA with C-terminal FLAG tag; also called MRP4; Multidrug resistance protein 4; not shown: C-terminal fused FLAG tag
T1 sequence: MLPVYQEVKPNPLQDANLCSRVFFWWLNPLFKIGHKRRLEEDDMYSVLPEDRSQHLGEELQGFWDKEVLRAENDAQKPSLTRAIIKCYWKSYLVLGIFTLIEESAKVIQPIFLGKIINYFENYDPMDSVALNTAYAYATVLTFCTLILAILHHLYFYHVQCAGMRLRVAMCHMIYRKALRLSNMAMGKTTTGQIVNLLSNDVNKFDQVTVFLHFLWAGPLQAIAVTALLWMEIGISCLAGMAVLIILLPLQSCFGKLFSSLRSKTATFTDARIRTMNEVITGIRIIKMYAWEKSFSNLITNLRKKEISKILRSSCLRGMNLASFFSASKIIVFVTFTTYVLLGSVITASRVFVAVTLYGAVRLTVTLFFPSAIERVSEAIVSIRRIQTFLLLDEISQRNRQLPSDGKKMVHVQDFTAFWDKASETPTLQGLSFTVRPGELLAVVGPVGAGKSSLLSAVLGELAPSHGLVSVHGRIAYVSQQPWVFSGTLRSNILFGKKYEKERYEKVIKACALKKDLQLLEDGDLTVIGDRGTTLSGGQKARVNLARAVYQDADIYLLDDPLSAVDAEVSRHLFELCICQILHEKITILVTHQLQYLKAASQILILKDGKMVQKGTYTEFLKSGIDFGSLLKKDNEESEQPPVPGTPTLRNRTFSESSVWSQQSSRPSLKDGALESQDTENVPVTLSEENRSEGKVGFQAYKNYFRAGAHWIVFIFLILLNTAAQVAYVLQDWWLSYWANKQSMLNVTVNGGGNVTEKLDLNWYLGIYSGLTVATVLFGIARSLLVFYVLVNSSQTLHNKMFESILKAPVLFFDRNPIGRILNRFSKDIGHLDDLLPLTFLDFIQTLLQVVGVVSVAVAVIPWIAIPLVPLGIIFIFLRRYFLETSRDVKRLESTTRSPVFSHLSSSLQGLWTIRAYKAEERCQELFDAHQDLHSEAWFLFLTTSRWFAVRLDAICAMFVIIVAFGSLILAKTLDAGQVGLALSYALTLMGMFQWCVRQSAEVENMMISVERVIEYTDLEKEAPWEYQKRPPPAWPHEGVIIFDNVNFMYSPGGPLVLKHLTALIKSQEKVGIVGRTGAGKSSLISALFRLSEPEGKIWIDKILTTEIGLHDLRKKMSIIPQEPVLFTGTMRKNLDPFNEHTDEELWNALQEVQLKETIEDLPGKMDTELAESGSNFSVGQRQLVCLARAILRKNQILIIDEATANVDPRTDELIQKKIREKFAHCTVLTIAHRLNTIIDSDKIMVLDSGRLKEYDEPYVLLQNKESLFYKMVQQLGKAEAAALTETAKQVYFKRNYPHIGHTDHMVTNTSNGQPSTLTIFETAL
Nature of the assay: FACS, C6 cells stably expressing human ABCC4; + = MFI>3x background. As to the method:
Antibody binding to cells was evaluated by flow cytometry. Murine C6 cells stably transfected to express human or cynomolgus ABCC4 were washed once in flow cytometry buffer (PBS+2% FBS+0.02% sodium azide), resuspended at 2×10\hat{ }6 cells/mL in flow cytometry buffer, and dispensed into 96-well microtiter plates at 0.1 mL/well. Recombinant antibodies were added to cells at 5 ug/mL for initial binding confirmation, or serially diluted from 100 ug/mL in flow cytometry buffer. After incubating cells on ice for 30 min, cells were washed twice with flow cytometry buffer. Bound antibody was detected with PE-labeled F(ab′)₂ fragment goat anti-human IgG (Jackson ImmunoResearch) and evaluated on an Attune N×T flow cytometer. EC50 is calculated to be the concentration of antibody that gives half maximal response.

Assay [2] concerns the target T2, human ABCC4 (Homo sapiens, UniProt O15439).
T2 construct: expressed in transfected cells
T2 sequence (O15439 1-1325): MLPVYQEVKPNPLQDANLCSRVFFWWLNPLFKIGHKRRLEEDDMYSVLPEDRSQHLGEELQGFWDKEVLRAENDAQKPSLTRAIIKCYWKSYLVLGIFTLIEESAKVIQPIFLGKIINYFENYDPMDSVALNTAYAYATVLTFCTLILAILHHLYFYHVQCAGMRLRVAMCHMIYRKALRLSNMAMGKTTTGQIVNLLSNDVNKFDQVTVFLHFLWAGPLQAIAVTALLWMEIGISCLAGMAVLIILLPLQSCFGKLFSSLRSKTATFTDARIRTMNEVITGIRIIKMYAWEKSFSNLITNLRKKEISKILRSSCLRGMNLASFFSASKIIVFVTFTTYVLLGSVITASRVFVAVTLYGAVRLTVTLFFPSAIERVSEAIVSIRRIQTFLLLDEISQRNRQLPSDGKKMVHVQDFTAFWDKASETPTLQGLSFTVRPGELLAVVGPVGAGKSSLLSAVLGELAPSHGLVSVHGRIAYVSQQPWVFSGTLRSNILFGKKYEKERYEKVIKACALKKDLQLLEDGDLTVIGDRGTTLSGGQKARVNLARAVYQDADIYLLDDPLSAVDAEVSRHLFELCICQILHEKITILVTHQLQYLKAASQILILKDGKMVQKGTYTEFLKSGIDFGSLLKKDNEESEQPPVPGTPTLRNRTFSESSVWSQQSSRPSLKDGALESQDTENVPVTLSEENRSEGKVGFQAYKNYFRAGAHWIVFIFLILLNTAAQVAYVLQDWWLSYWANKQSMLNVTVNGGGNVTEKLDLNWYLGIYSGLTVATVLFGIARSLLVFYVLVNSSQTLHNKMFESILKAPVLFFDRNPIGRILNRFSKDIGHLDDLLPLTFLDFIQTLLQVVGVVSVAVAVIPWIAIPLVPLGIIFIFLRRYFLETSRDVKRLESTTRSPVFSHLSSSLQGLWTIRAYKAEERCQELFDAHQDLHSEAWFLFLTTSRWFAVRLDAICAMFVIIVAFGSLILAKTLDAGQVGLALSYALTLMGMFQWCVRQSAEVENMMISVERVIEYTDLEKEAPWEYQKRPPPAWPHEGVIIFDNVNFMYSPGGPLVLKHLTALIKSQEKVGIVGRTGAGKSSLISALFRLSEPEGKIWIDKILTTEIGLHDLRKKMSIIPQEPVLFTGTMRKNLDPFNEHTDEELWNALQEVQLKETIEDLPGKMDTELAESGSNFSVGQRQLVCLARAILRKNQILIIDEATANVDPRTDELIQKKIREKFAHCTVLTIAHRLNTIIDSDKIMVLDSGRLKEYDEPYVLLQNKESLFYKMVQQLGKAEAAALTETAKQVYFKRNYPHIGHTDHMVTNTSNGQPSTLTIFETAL
In words: Flow cytometry (FACS) binding to C6 cells stably transfected to express human ABCC4 (different experiment, Table 4). Summed up: (§1)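 Murine C6 cells stably expressing FLAG-tagged human or cynomolgus ABCC4 incubated 30 min on ice with antibodies, either 5 ug/mL or serially diluted from 100 ug/mL, in PBS+2% FBS+0.02% azide. Detection with PE anti-human IgG F(ab′)2 by flow cytometry; EC50 at half-maximal MFI; negative below background, positive >3× background.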

In another assay the test system is cynomolgus ABCC4. In words: Flow cytometry (FACS) binding to C6 cells stably transfected to express cynomolgus ABCC4 (different experiment, different C6.cC4 cell line, Table 4). Summed up: as §1

B1: C4.1152 (antibody, V domains shown)
VH: EVKLVESDGGLVQPGRSLKLSCAASGFTFSDFYMAWVRQAPTKGLEWIASISHDGRNTYYRDSVKGRFTISRDNAKRTLYLQMDSLRSEDTATYYCASLTARYKGVMGAWGQGTLVTVSS
VL: DVVMTQSPSHLAASPGESVSINCKASKNIYKYLAWYQQKPGKTNKLLIYSGSTLQSGTPSRFSGSGSGSDFTLTIRNLEPEDFGLYYCQHHNEYPPTFGGGTKLEIK
On to B1, for which the binding result in the assay with human ABCC4 [1] is recorded as “binds”. For the same molecule, in the assay with human ABCC4 [2] (C6 cells stably transfected to express human ABCC4, FACS, different experiment, Table 4), the “Human ABCC4 binding” value was “+ (Positive (+)=MFI>3× background level)”. In addition, the “binding to human ABCC4 expressed on cell surface” value in the assay with human ABCC4 [2] (Table 4 study, stated in words) was “bind to both human and cynomolgus ABCC4”. Also, the “binding to cynomolgus ABCC4 expressed on cell surface” value with cynomolgus ABCC4 (Table 4 study, stated in words) was “bind to both human and cynomolgus ABCC4”. For the same molecule, the “Cynomolgus ABCC4 binding” value in the assay with cynomolgus ABCC4 (different C6.cC4 cell line, C6 cells stably transfected to express cynomolgus ABCC4, FACS, Table 4) is on record as “+ (Positive (+)=MFI>3× background level)”.
